This series in a line: label from the status in PepcDB records.

The values below come from a protein production outcome set (Wang et al. 2014).

In the case of “MSFKNDHKYQWKDMQGKDFLLPFIYLIGNFCLSIVILTIMIGINETQGKNNANFNANFSGTPGILMEMIAFIIIFALWILFHRHSFRQSWKQGLQNIKQHWKLIVITFIVIIVFKEIYPYLVNAFAPEHWKFEETQNDKMVEEMFATPVSTILAFFSIVIIAPMTEEFLFRHLIIGELGKKLNFYVMSVISIIVFASLHVTEAKSPLEIVMYLAIAVGIVYVYMKSQRSLAVAIALHALNNLLAYIFMIIM”, the protein production entry is recorded as “failed”. Turning to “MSFSTEIEVRFKHCDPAGIVFFPRYFEMINDVVEDWFANDLGCPFHELVKENGAPTAQIQARFTAPSLHGDVLSFRLTPTRIGNSSLDYDLTAHCGDELRLRATATLVHVARLGRSQPWPQAIRERVAAQIDSALEHHHHHH”, the protein production entry is “failed”.

Regarding “MSFVECPYHSPAERLVAEADEGGPSAITGMGLCFRCLLFSFSGRSGVEGGRVDLNVFGSLGLQPWIGSSRCWGGPCSSALRCGWFSSWPPPSKSAIPIGGGSRGAGRVSRWPPPHWLEAWRVSPRPLSPLSPATFGRGFIAVAVIPGLWARGRGCSSDRL”, the protein production entry is listed as “failed”.

As to “MSFVTTQPEALAAAAANLQGIGTTMNAQNAAAAAPTTGVVPAAADEVSALTAAQFAAHAQMYQTVSAQAAAIHEMFVNTLVASSGSYAATEAANAAAAG”, the protein production result was “failed”. Consider “MSFYVVVGAGPVGRETARLLGEEGHDVVLTSRSVGSNALPNVRTVQADATDASELSRICRGADAIFMCAMAAYHRWPTDFFPIIDGTVRAAEAVGAKLIVLGNLYGYGENADSPLRSDLPLDPTSRKGTARTIMWQRAVRAGIPAIEIRSSDYLGHGAISYFSLIALPAIIEGKPTAFIGDLDATHAWAFTKDVARTLVAAALYKGEWGRAFHVPSQYASPRELIQKAAAMLGQEVSGTLSYSVPEIEALGMHEAIEMSYLFEKPLLVDASDTEALLGVKASSLEEMIADTLRDHL”, for which the protein production entry is “failed”.

Regarding “MSGDILNDIVAACLELERKASSVFKMFAAHAGSDEARRFWETVADETRHHSAVYERLQERGGRENLPIIIYKPAETLEELEMIGKSIDEQVERYTEAPSSEAACLLGFRLQLYLLHPAFASLCRLTRDASGEDLPDIGYGRYLRRFIDGIGSCGLATAETELLGEALFRLWNEARQLAAQSHFDALTGVMTRAGFFKTVGSLAYAAQRSGSNVGIMLIDLDYFKLVGDNYGHQTGDRILQLVAETITSHLRRSDVVGRYDGDEFVVYLSPVEPASLRTVAENLRRSIEEESARMVPVTASIGVAQGILGTDVDGGIEELVRLADECLMQAKYTGKNKVVVK”, the protein production entry is listed as “not failed”.

Regarding “MSGDYRITLEELRYISVFHSITGVTAYRCIVDEENNRLIFLVSEGEAGRAIGRGGRLIKLLREALGKNIEVVEYSSDLERIVKNLFPGVKIESINVRERNGVKQVVIKVSEDDKGAAIGKGGKNVKRARLVLSKLFGVEKVVIR”, the protein production entry is on record as “not failed”. On to “MSGEGDTTLKAICYKPGSLQLLDQRKLPLETIYLEIRDASDGWSAIQEMVVRGAPAIAIAAALSLAVEVFNFHGFDGSASDAVAFLENKLDYLVSSRPTAVNLADAALKLKHVIAKALATATEAKSIFKAYIEASEDMLEDDVVSNKAIGNFGLSLLRQQAKNPDKLSVLTHCNTGSLATAGYGTALGVIRALHTQGILERAYCTETRPFNQGSRLTAFELVHEKIPATLIADSAAAALMKDGRVDGVIVGADRVASNGDTANKIGTYSLALCAKHHGIPFYVAAPLTSVDLSLSSGKEIVIEERSPKELMHTHGGLGERIAAPGISVWNPAFDMTPAELIAGIITEKGVITKNGNDTFDISSFAKKITGNSSR”, for which the protein production result is given as “failed”.

With “MSGEKIDITPKKDGGVLKLIKKEGQGVVKPTTGTTVKVHYVGTLENGTKFDSSRDRGDQFSFNLGRGNVIKGWDLGVATMTKGEVAEFTIRSDYGYGDAGSPPKIPGGATLIFEVELFEWSAEDISPDRDGTILRTIIVEGSKNSFPNDTSKVLAHCVGTYQGTEFYNREVNFHIGEGSEEGLPEGVERALRRFQLGEKSKIEIRGHKYTYGNSPPAGSNIPVNATLEFTIFLKEFEKVPATWEMTAEEKLDAAKQAKDRGTMYLQKGNLKLAYNKYKRAEEVLEYEKSTDPEKMAERETILNGAYLNLSLVCSKQNEQLECIKWCDKVLETKPGNVKALYRKATALLTMNEVRDAMKLFEKIVEVEPENKAAAQQIIVCRNTIREQNERDKKRFKNLFAKISTEEDKPTNTVEDEDEIVASTSGSSTSNA”, the protein production result is on record as “not failed”. With “MSGFSMKRVSQMTALAMALGLACASSWAAELAKPLTLDQLQQQNGKAIDTRPSAFYNGWPQTLNGPSGHELAALNLSASWLDKMSTEQLNAWIKQHNLKTDAPVALYGNDKDVDAVKTRLQKAGLTHISILSDALSEPSRLQKLPHFEQLVYPQWLHDLQQGKEVTAKPAGDWKVIEAAWGAPKLYLISHIPGADYIDTNEVESEPLWNKVSDEQLKAMLAKHGIRHDTTVILYGRDVYAAARVAQIMLYAGVKDVRLLDGGWQTWSDAGLPVERGTPPKVKAEPDFGVKIPAQPQLMLDMEQARGLLHRQDASLVSIRSWPEFIGTTSGYSYIKPKGEIAGARWGHAGSDSTHMEDFHNPDGTMRSADDITAMWKAWNIKPEQQVSFYCGTGWRASETFMYARAMGWKNVSVYDGGWYEWSSDPKNPVATGERGPDSSK” the entry was “failed”. Consider “MSGGGVIRGPAGNNDCRIYVGNLPPDIRTKDIEDVFYKYGAIRDIDLKNRRGGPPFAFVEFEDPRDAEDAVYGRDGYDYDGYRLRVEFPRSGRGTG”, for which the protein production result was “not failed”.

In the case of “MSGGLVALLDDVAALARIAAASVDDIAAGAAKAGAKAAGVVIDDAAVTPQYVSGADPSRELPMIKRIFWGSLRNKLLIILPALLLVSAFIPGVIPFILMLGGTYLCYEGAEKVWHKLRGHSATEKAPAVQRGPEAEAKVTKGAITTDFILSCEIMVIAMNEVADESLWVRALILVVVAFVITVVVYGAVGLIVKMDDIGLHLTTKASSGSQRFGRLLVKGMPAVLAAITLIGTIAMLWVGGHIMLQGAYDLGWHAPYDLVHVLETPFAGIPVAGGFLAWLVNTLCSAILGAVWGLVIMVILHPLLKVLPFGKKHEGHEEGDVRAAIAGYRPAKSKPTR”, the protein production entry is “failed”. For “MSGKRALITGIRGQDGAYLAKLLLEKGYEVYGADRRSGEFASWRLKELGIENDVKIIHMDLLEFSNIIRTIEKVQPDEVYNLAAQSFVGVSFEQPILTAEVDAIGVLRILEALRTVKPDTKFYQASTSEMFGKVQEIPQTEKTPFYPRSPYAVAKLFGHWITVNYREAYNMFACSGILFNHESPLRGIEFVTRKITYSLARIKYGLQDKLVLGNLNAKRDWGYAPEYVEAMWLMMQQPEPDDYVIATGETHTVREFVEKAAKIAGFDIEWVGEGINEKGIDRNTGKVIVEVSEEFFRPAEVDILVGNPEKAMKKLGWKPRTTFDELVEIMMEADLKRVRDREVSV”, the protein production entry is “not failed”. To “MSGLRVYSTSVTGSREIKSQQSEVTRILDGKRIQYQLVDISQDNALRDEMRTLAGNPKATPPQIVNGNHYCGDYELFVEAVEQDTLQEFLKLA” belongs “not failed”; to “MSGQADTATTAEARTPAHAAHHLVEGVARVLTKPRFRGWIHVYSAGTAVLAGASLVAVSWAVGSAKAGLTTLAYTAATITMFTVSATYHRVNWKSATARNWMKRADHSMIFVFIAGSYTPFALLALPAHDGRVVLSIVWGGAIAGILLKMCWPAAPRSVGVPLYLLLGWVAVWYTATILHNAGVTALVLLFVGGALYSIGGILYAVRWPDPWPTTFGYHEFFHACTAVAAICHYIAMWFVVF”, “failed”. Take “MSGQPTAVDCLESSGSTVEDVQETPASREKSYGLPVRKGENSLESPAEQAAKDVEIEELTHSEAIAATGSTRKQCPYGGKAPDEPGKLADESEDRKGENTKAIASSPVLVAVDSDSSVELIESPVKFSSANESEKDPPKPDAVNEAAAKE”: the protein production result was “failed”.

For the sequence “MSGSLARAAARPNAPTLVDEATVDDFIAHSGKIVVLFFRGDAVRFPEAADLAVVLPELINAFPGRLVAAEVAAEAERGLMARFGVAVCPSLAVVQPERTLGVIAKIQDWSSYLAQIGAMLAEVDQPGEAELQS”, the protein production entry is reported as “not failed”.
